{
  "source": "paper PMC1557793",
  "key": {"[1]": {"molecular_target": "E1 helicase domain of bovine papillomavirus type-1 (BPV-1) E1 (bovine papillomavirus type-1 (BPV-1))", "test": "SEC"}, "[2]": {"molecular_target": "E1 helicase domain of bovine papillomavirus type-1 (BPV-1) E1 (bovine papillomavirus type-1 (BPV-1))", "test": "SEC + other: glycerol gradient sedimentation"}, "[3]": {"molecular_target": "T1, E1HD (E1 helicase domain) (bovine papillomavirus type 1 (BPV-1), UniProt P03116 299-605)", "T1 sequence (P03116 299-605)": "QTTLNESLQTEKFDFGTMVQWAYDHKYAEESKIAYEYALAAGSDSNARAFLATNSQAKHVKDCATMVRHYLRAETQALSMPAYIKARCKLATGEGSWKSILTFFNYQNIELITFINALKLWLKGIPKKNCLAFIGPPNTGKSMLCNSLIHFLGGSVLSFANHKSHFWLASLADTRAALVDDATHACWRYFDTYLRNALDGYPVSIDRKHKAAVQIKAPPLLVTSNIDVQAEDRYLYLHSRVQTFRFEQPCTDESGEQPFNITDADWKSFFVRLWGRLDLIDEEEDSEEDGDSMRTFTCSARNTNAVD", "test": "EMSA"}, "[4]": {"molecular_target": "T1, E1HD (E1 helicase domain)", "test": "EMSA", "remark": "listed apart in the source"}, "[5]": {"molecular_target": "T1, E1HD (E1 helicase domain)", "test": "EMSA", "remark": "listed apart in the source"}, "[6]": {"molecular_target": "T1, E1HD (E1 helicase domain)", "test": "gel filtration"}, "[7]": {"molecular_target": "T1, E1HD (E1 helicase domain)", "test": "EMSA", "remark": "listed apart in the source"}, "[8]": {"molecular_target": "T1, E1HD (E1 helicase domain)", "test": "EMSA", "remark": "listed apart in the source"}},
  "note": "Read-outs that look alike come from different tables or passages of the source.",
  "data": [
    {"molecule": "E1 helicase domain of bovine papillomavirus type-1 (BPV-1) E1 (domain or fragment)", "values": [
      {"measurement": "percent of protein oligomeric", "setting": "[1]", "value": 40, "unit": "%"},
      {"measurement": "stoichiometry N", "setting": "[1]", "value": 6},
      {"measurement": "stoichiometry N", "setting": "[2]", "value": 6}
    ]},
    {"molecule": "TTTTTTTTTTTTTTTT (ssDNA)", "note": "[T16]", "values": [
      {"measurement": "binding result", "setting": "[3]", "value": "binds"}
    ]},
    {"molecule": "TTTTTT (ssDNA)", "note": "[T6]", "values": [
      {"measurement": "binding result", "setting": "[4]", "value": "no binding"}
    ]},
    {"molecule": "TTTTTTTTTTTTTTTTTTTTTTTTTTTTTTTTTTTTTTTTTT (ssDNA)", "note": "[T42]", "values": [
      {"measurement": "binding result", "setting": "[5]", "value": "binds"}
    ]},
    {"molecule": "TTTTTTTTTTTTTTTTTT (ssDNA)", "note": "[T18]", "values": [
      {"measurement": "binding result", "setting": "[6]", "value": "binds"}
    ]},
    {"molecule": "TTTTTTTTTTTTTTTTTTTT (ssDNA)", "note": "[T20]", "values": [
      {"measurement": "binding result", "setting": "[3]", "value": "binds"}
    ]},
    {"molecule": "TTTTTTTTTTTTTTTTTTTTTTTTTTTTTT (ssDNA)", "note": "[T30]", "values": [
      {"measurement": "Kd", "setting": "[7]", "value": "1.83 ± 0.29", "unit": "µM"},
      {"measurement": "Kd", "setting": "[8]", "value": "0.297 ± 0.007", "unit": "µM"}
    ]}
  ]
}
